The target in assay [1] is T1, human CRH receptor type 2 (human, UniProt Q13324 1-411).
T1 sequence (looked up): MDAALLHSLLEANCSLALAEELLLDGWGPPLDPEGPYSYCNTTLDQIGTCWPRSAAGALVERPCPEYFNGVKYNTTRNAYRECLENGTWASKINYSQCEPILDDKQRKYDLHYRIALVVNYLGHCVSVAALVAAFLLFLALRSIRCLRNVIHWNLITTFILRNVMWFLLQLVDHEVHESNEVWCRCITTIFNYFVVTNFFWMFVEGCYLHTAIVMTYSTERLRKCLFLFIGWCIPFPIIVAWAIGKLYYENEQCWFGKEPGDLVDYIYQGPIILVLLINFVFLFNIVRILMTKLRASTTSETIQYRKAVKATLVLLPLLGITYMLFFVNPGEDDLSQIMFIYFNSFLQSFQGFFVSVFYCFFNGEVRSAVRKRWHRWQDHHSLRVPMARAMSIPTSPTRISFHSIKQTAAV
Put plainly: cell-based or functional assay.

Assay [2] has as its target T1, human CRH receptor type 2. Briefly: radioligand competition, [125I]-anti-sauvagine-30, membranes of h-CRHR2 SK-N-MC cells. On the technique in general: Loss of bound radioactivity is the signal in a displacement assay; it reports binding, not function.
The target in assay [3] is T1, human CRH receptor type 2. Put plainly: cell-based or functional assay. This is another data set of the same source.
Assay [4] has as its target T2, human CRH receptor type 1 (human, UniProt P34998 24-415).
T2 construct: whole, on cells; on transfected SK-N-MC cells (cAMP assay); membranes in the radioligand assay; also called CRHR1; h-CRHR1
T2 sequence (looked up): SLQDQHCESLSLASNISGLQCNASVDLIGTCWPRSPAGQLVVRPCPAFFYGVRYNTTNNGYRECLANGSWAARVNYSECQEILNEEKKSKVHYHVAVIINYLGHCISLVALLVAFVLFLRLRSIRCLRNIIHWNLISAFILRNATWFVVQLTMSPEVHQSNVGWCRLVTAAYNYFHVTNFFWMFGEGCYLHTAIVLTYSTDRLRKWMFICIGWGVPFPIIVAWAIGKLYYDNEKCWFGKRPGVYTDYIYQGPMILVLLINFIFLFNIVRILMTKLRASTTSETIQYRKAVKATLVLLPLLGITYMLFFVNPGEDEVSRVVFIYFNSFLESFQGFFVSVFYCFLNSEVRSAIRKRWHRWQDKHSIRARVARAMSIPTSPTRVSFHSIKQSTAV
Put plainly: radioligand competition, [125I]-(Tyr0)-sauvagine, CRHR1 membrane assay.
Protocol: Frozen cell pellets were defrosted on ice in 15 ml of assay buffer that was composed of 10 mM HEPES, 130 mM NaCl, 4.7 mM KCl, 5 mM MgCl₂, and 0.089 mM bacitracin at pH 7.2 and 21±3° Celsius. The solution was then homogenized with a Polytron tissue grinder at a setting of 10 and 7×3s (Brinkmann Instruments, Westbury, N.Y.). The homogenate was centrifuged at 4° Celsius at 800×g for 5 min with the pellet being discarded. The supernatant was re-centrifuged at 26,892×g for 25 min at 4° Celsius with the final pellet being re-suspended in assay buffer. All binding assays were conducted in 96-well Multiscreen GF/B filter plates (Millipore, Billericay, Mass., U.S.A.) that were pre-soaked in assay buffer with 0.3% PEI for 1 hour. […] The bound radioactivity was separated by filtration using a Multiscreen Resist manifold (Millipore Corp., Billerica, Mass., U.S.A). The filters were washed three times with ice-cold PBS at pH 7.5 and radioactivity retained on the filters was quantified by its liquid scintillation measured by a TopCount counter (Packard BioScience, Boston, Mass., U.S.A). All experiments were performed in triplicate.
Data from individual competition curves were expressed as the percentage of specific [¹²⁵I]-anti-sauvagine-30 or)[¹²⁵I]-(Tyr⁰-sauvagine binding (B) within each experiment.

Assay [5] deals with T1, human CRH receptor type 2. Briefly: radioligand competition, [125I]-anti-sauvagine-30, membranes of h-CRHR2 SK-N-MC cells; biphasic curve.
Assay [6] deals with T2, human CRH receptor type 1. Briefly: cell-based or functional assay.
Assay [7] addresses T1, human CRH receptor type 2. Briefly: cell-based or functional assay. This is another data set of the same source.
Assay [8] deals with T1, human CRH receptor type 2. Put plainly: inferred from the test as antagonist at 10 µM, cAMP assay on h-CRHR2 SK-N-MC cells.
The target in assay [9] is T3, human CRH receptor type 1 (human), P34998.
T3 chain: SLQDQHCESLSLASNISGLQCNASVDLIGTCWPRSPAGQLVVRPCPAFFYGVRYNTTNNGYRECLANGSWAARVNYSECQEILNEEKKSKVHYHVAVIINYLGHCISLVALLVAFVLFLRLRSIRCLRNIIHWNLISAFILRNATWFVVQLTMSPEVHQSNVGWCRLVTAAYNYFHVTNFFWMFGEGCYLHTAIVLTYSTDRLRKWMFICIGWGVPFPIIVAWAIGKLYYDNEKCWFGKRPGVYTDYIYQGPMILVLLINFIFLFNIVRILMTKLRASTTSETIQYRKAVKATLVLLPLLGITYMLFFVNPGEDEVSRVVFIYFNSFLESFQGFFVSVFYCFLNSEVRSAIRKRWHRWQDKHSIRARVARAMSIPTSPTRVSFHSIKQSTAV
Put plainly: radioligand competition, [125I]-(Tyr0)-sauvagine, CRHR1 membrane assay. The settings on record: remark: other sources report otherwise.

Assay [10] deals with T1, human CRH receptor type 2. Briefly: cell-based or functional assay. The source holds these as a separate data set.
Assay [11] deals with T1, human CRH receptor type 2. Put plainly: cell-based or functional assay. The source holds these as a separate data set.
Where [12] appears, read: scale: % of the maximum response obtained to h-SCP.

Experimental findings from patent publication US20100130424A1 (Janssen / Centocor, published 2010) are described below.

Values joined by “and” are separate entries in the source; they are usually repeats but may differ in a detail not shown here. Equal entries are not always repeated. Where two headings read alike, the source gives them in different places. No end group written: not given here.

h-SRP (peptide): in assay [1], the pA50, cAMP was 9.32 -log M and 9.58 -log M and 9.23 -log M; the αmax, cAMP was 114 and 109 and 98.6. In addition, the pKI in assay [2] is 7.57 -log M.

In the case of human urocortin 2 (peptide), in assay [1], the pA50, cAMP is 9.51 -log M; the αmax, cAMP was 115 and 129. The molecule further showed a αmax, cAMP in assay [1] (setting [12]) of 117. The pKI in assay [2] was 7.74 -log M.

B1: anti-sauvagine-30 (peptide)
peptide: FHLLRKMIEIEKQEKEKQQAANNRLLLDTI-NH2
notes: selective CRHR2 antagonist; also called SV30; CRHR antagonist peptide
Take B1: in [3], the pA2 against h-SCP, cAMP was 7.82 -log M. Besides, the results for the pKI in [4] and in [2] were 5.81 -log M and 7.78 -log M, respectively.

In the case of TKFTLSLDVPTNIMNLLFNIAKAKNLRAQAAANAHLMAQI-NH2 (40 amino acids; also called h-SCP) [Human stresscopin with amidated C-terminus], in assay [3], the A50, cAMP was 0.4 nM; the control pA50, cAMP is 9.47 to 9.74 -log M; the pA50, cAMP was 9.4 -log M; the pA50, cAMP (one batch) is 9.41 -log M. The same molecule returned a αmax, cAMP (% of the maximum response to h-SCP) in assay [3] of 98.7. For the same molecule, in assay [3] (setting [12]), the αmax, cAMP came to 100. For the same molecule, the pKI in [4] is 4.6 -log M. Moreover, the pIC50 (low affinity state) in assay [5] was 6.6 -log M. Moreover, the “pA50, cAMP” value in assay [6] is < 5 -log M. Moreover, the pKI in assay [2] is 5.71 -log M.

For the molecule TKFTLSLCVPTNIMNLLFNIAKAKNLRAQAAANAHLMAQI (NES-PEG (about 20 kDa) on Cys 8; C-terminal amide) [Pegylated Cys-variant CRHR2 peptide agonist (NES linker, PEG about 20 kDa), SEQ ID NO: 62], in assay [7], the “Log DR against h-SCP, cAMP” value is above 3.48 log10 ratio and the “pA50, cAMP” value is ~6.06 -log M.

TKFTLSLDVCTNIMNLLFNIAKAKNLRAQAAANAHLMAQI (NES-PEG (about 20 kDa) on Cys 10; C-terminal amide) [Pegylated Cys-variant CRHR2 peptide agonist (NES linker, PEG about 20 kDa), SEQ ID NO: 64]: in assay [7], the “Log DR against h-SCP, cAMP” value was around 2.59 log10 ratio and the “pA50, cAMP” value was ~6.98 -log M.

Consider TKFTLSLDVPCNIMNLLFNIAKAKNLRAQAAANAHLMAQI (NES-PEG (about 20 kDa) on Cys 11; C-terminal amide) [Pegylated Cys-variant CRHR2 peptide agonist (NES linker, PEG about 20 kDa), SEQ ID NO: 65], for which, in [7], the “Log DR against h-SCP, cAMP” value was around 2.75 log10 ratio and the “pA50, cAMP” value was ~6.82 -log M.

With TKFTLSLDCPTNIMNLLFNIAKAKNLRAQAAANAHLMAQI (NES-PEG (about 20 kDa) on Cys 9; C-terminal amide) [Pegylated Cys-variant CRHR2 peptide agonist (NES linker, PEG about 20 kDa), SEQ ID NO: 63], in [7], the “Log DR against h-SCP, cAMP” value was around 2.12 log10 ratio and the “pA50, cAMP” value was ~7.45 -log M.

As to TKFTLSLDVPCNIMNLLFNIAKAKNLRAQAAANAHLMAQI-NH2 [Cys-variant CRHR2 peptide agonist, SEQ ID NO: 12], in assay [7], the “Log DR against h-SCP, cAMP” value came to 1.72 log10 ratio and the “pA50, cAMP” value is 7.86 -log M.

For LDVPTNIMNLLFNIAKAKNLRAQAAANAHLMAQI-NH2 [CRHR2 peptide agonist with shortened amino acid sequence, 34aa, SEQ ID NO: 111], the KA (receptor affinity, in µM) in [8] was above 10 µM.

In assay [8], DVPTNIMNLLFNIAKAKNLRAQAAANAHLMAQI-NH2 [CRHR2 peptide agonist with shortened amino acid sequence, 33aa, SEQ ID NO: 112] came in with a KA (receptor affinity, in µM) above 10 µM.

Take DDPPLSIDLTFHLLRTLLELARTQSQRERAEQNRIIFDSV-NH2 [r-UCN1]: in [1], the pA50, cAMP was 9.08 -log M and the αmax, cAMP amounted to 110. In addition, in [6], the “pA50, cAMP” value was 9.19 -log M. For the same molecule, the pKI in [2] was 8.51 -log M.

For TKFTLSLDVCTNIMNLLFNIAKAKNLRAQAAANAHLMAQI-NH2 [Cys-variant CRHR2 peptide agonist, SEQ ID NO: 11], in assay [7], the “Log DR against h-SCP, cAMP” value came to 0.82 log10 ratio and the “pA50, cAMP” value was 8.76 -log M.

Molecule SLDVPTNIMNLLFNIAKAKNLRAQAAANAHLMAQI-NH2 [CRHR2 peptide agonist with shortened amino acid sequence, 35aa, SEQ ID NO: 110] returned a KA (receptor affinity, in µM) in [8] above 10 µM.

FTLSLDVPTNIMNLLFNIAKAKNLRAQAAANAHLMAQI-NH2 [human Urocortin III]: the pKI is 4.96 -log M in assay [9] and 6.49 -log M in assay [2]. For the same molecule, the figures for the pA50, cAMP in [3] and in assay [6] were 9.26 -log M and < 5 -log M, respectively. This molecule yielded a αmax, cAMP in assay [3] of 102.

Consider KFTLSLDVPTNIMNLLFNIAKAKNLRAQAAANAHLMAQI-NH2 [CRHR2 peptide agonist with shortened amino acid sequence, 39aa, SEQ ID NO: 107], for which, in assay [10], the “pA50, cAMP” value was 9.25 -log M and the “αmax, cAMP” value was 111 % of the maximum response to h-SCP.

For the molecule TLSLDVPTNIMNLLFNIAKAKNLRAQAAANAHLMAQI-NH2 [CRHR2 peptide agonist with shortened amino acid sequence, 37aa, SEQ ID NO: 108], in assay [10], the “pA50, cAMP” value is 8.49 -log M and the “αmax, cAMP” value is 106 % of the maximum response to h-SCP.

Consider TKFTLSLDVPTNIMNLLFNIAKAKNLRAQAAANAHLMAQI-OH [non-amidated h-SCP], for which, in assay [11], the “potency against amidated h-SCP, cAMP” value is around 200 fold less potent. For the same molecule, in [10], the “pA50, cAMP” value is 7.1 -log M and the “αmax, cAMP” value is 107 % of the maximum response to h-SCP.

On to TKFTLSLDCPTNIMNLLFNIAKAKNLRAQAAANAHLMAQI-NH2 [Cys-variant CRHR2 peptide agonist, SEQ ID NO: 10], for which, in [7], the “Log DR against h-SCP, cAMP” value came out at 1.3 log10 ratio and the “pA50, cAMP” value is 8.28 -log M.
